In patent publication US20250042957A1 (Molecular Partners, published 2025):
Like-named read-outs stand apart in the source and are kept apart here.

Experiments:
[1] = molecular target: T1, scCD3εγ; assay: ELISA: plate-bound biotinylated scCD3εγ, His-tagged construct titrated, no VEGF
T1 chain 1: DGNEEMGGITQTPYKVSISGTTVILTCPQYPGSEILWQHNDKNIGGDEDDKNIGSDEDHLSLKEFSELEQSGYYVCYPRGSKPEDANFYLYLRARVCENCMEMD
T1 chain 2: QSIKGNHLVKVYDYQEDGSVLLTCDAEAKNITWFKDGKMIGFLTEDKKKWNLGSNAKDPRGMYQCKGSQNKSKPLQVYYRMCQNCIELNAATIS
Procedure: (§1) The difference in binding of Switchdrug DARPins to scCD3εγ in presence and absence of VEGF was assessed. […] Said Switchdrug DARPins were mixed with a constant concentration of VEGF (100 nM) and tested for binding to scCD3εγ. […] The difference in EC50 of a construct in presence and absence of VEGF can be referred to as the “activation window”.
(§2) Switchdrug DARPins that were mixed with VEGF were titrated and pre-incubated for 1 day with VEGF in order to establish the thermodynamic equilibrium. These samples were loaded on the ELISA plate, incubated and washed, before the bound Switchdrug DARPins were detected as described above.

[2] = molecular target: T1, scCD3εγ; assay: as above
Procedure: as §2

[3] = molecular target: T1, scCD3εγ; assay: ELISA: plate-bound biotinylated scCD3εγ, His-tagged construct titrated in presence of 100 nM soluble VEGF
Procedure: as §1, §2

[4] = molecular target: T1, scCD3εγ; assay: ELISA: plate-bound biotinylated scCD3εγ, His-tagged construct titrated without and with 100 nM soluble VEGF
Procedure: as §1, §2

[5] = molecular target: T1, scCD3εγ; assay: ELISA: plate-bound biotinylated scCD3εγ, His-tagged construct titrated in presence of 100 nM soluble VEGF
Procedure: as §1, §2

[6] = molecular target: T1, scCD3εγ; assay: ELISA: plate-bound biotinylated scCD3εγ, His-tagged construct titrated without and with 100 nM soluble VEGF
Procedure: as §1, §2

[7] = molecular target: T2, VEGF165 (UniProt P15692-4 27-191, biotinylated in the ELISA of Example 4 (site not stated)); assay: ELISA: plate-bound biotinylated VEGF165, His-tagged construct titrated, no soluble VEGF, anti-His-HRP detection
T2 construct: also called biotinylated VEGF165; soluble VEGF

[8] = molecular target: T1, scCD3εγ; assay: ELISA: plate-bound biotinylated scCD3εγ, His-tagged construct titrated in presence of 100 nM soluble VEGF
Procedure: as §1, §2

[9] = molecular target: T1, scCD3εγ; assay: ELISA: plate-bound biotinylated scCD3εγ, His-tagged construct titrated without and with 100 nM soluble VEGF
Procedure: as §1, §2

[10] = molecular target: T1, scCD3εγ; assay: as above
Procedure: as §1, §2

[11] = molecular target: T1, scCD3εγ; assay: ELISA: plate-bound biotinylated scCD3εγ, His-tagged construct titrated, no VEGF
Procedure: as §1, §2

[12] = molecular target: T1, scCD3εγ; assay: ELISA: plate-bound biotinylated scCD3εγ, His-tagged construct titrated in presence of 100 nM soluble VEGF
Procedure: as §1, §2

[13] = molecular target: T3, Aminoglycoside phosphotransferase (APH) (Enterococcus faecalis (Streptococcus …, UniProt P0A3Y5 2-264))
T3 chain: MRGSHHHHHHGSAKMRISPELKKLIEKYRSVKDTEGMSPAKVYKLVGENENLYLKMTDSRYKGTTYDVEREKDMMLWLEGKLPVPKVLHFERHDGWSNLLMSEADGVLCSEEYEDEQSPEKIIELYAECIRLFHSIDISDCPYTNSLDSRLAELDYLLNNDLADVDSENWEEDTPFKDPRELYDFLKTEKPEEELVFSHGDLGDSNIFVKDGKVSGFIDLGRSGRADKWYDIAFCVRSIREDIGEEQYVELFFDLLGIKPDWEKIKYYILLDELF

[14] = molecular target: Maltose binding protein (MBP) (E. coli); assay: ELISA on MBP, DARPin titrated
[15] = molecular target: T3, Aminoglycoside phosphotransferase (APH); assay: ELISA on APH, DARPin titrated

T2 sequence (P15692 other isoform, or with tags, fused parts or gaps limits assumed): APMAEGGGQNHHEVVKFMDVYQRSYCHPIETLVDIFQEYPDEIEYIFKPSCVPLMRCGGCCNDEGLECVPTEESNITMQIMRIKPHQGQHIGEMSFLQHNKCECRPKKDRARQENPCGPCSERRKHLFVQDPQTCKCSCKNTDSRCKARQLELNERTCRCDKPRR

B1: Switchdrug DARPin 17-1 (designed binder)
chain: MRGSHHHHHHGSDLGQKLLEAAWAGQDDEVRELLKAGADVNAKNSRGWTPLHTAAQTGHLEIFEVLLKAGADVNAKNDKRVTPLHLAAALGHLEIVEVLLKAGADVNARDSWGTTPADLAAKYGHQDIAEVLQKAAGSPTPTPTTPTPTPTTPTPTPTGSDLGKKLLQAARAGQLDEVRELLKAGADVNAKDSTGWTPLHLAAPWGHPEIVEVLLKAGADVNAKDFQGWTPLHLAAAAGHLEIVEVLLKAGADVNAKDWLGWTPLHLAASHGHLEIVEVLLKAGADVNAQDKSGKTPADLAARAGHQDIAEVLQKAA
notes: also called 2-in-1 DARPin17 in Format 1
**Q.** For B1, which “EC50 (read off the curve)” value [1] is on record?
**A.** ~70 nM

**Q.** And the “EC50 (read off the curve)” value [2]?
**A.** ~50 nM

**Q.** What about the “EC50 (read off the curve)” value [3] of the same binder?
**A.** ~3 nM

**Q.** What about the “shift in EC50 upon addition of 100 nM VEGF” value (“shift in EC50 upon addition” below) [4] of the same binder?
**A.** ~27 fold

B2: Switchdrug DARPin 18-B (designed binder)
chain: MRGSHHHHHHGSDLDKKLLEAARAGQDDEVRILLKAGADVNAKDSTGWTPLHLAAPWGHPEIVEVLLKAGADVNAKDFQGWTPLHLAAAAGHLEIVEVLLKAGADVNAKDVYGWTPLHIAAASGHLEIVEVLLKAGADVNAKDWLGWTPLHLAASHGHLEIVEVLLKAGADVNAQDKSGKTPADLAARAGHQDIAEVLQKAAGSPTPTPTTPTPTPTTPTPTPTGSDLGKKLLQAARAGQLDEVRELLKAGADVNAKDQYGRTPLHLAAIKGHLEIVEVLLKAGADVNAKDSLGYTPLHLAAVEGPLEIVEVLLKAGADVNAKDAYGQTPLHIAAAWGHLEIVEVLLKAVADVNAQDKSGKTPADLAARAGHQDIAEVLQKAAGSPTPTPTTPTPTPTTPTPTPTGSDLGQKLLEAAWAGQDDEVRELLKAGADVNAKNSRGWTPLHTAAQTGHLEIFEVLLKAGADVNAKNDKRVTPLHLAAALGHLEIVEVLLKAGADVNARDSWGTTPADLAAKYGHQDIAEVLQKAA
notes: also called 2-in-1 DARPin18 in Format B
**Q.** Which “EC50 (read off the curve)” value [5] does the source give for B2 here?
**A.** ~50 nM

**Q.** And the “shift in EC50 upon addition” value [6]?
**A.** ~19 fold

**Q.** And the “EC50 (read off the curve)” value [7]?
**A.** ~20 nM

B3: Switchdrug DARPin 15-3 (designed binder)
chain: MRGSHHHHHHGSDLDKKLLEAARAGQDDEVRILLKAGADVNAKDSTGWTPLHLAAPWGHPEIVEVLLKAGADVNAKDFQGWTPLHLAAAAGHLEIVEVLLKAGADVNAKDWLGWTPLHLAASHGHLEIVEVLLKAGADVNAQDKSGKTPADLAARAGHQDIAEVLQKAAGSPTPTPTTPTPTPTTPTPTPTGSDLGKKLLEAARAGQDDEVRELLKAGADVNAKDKDGYTPLHLAAREGHLEIVEVLLKAGADVNAKDKDGYTPLHLAAREGHLEIVEVLLKAGADVNAQDKSGKTPADLAADAGHEDIAEVLQKAAGSPTPTPTTPTPTPTTPTPTPTGSDLGQKLLEAAWAGQDDEVRELLKAGADVNAKNSRGWTPLHTAAQTGHLEIFEVLLKAGADVNAKNDKRVTPLHLAAALGHLEIVEVLLKAGADVNARDSWGTTPADLAAKYGHQDIAEVLQKAA
notes: also called 2-in-1 DARPin15 in Format 3
**Q.** B3 was tested. Which “EC50 (read off the curve)” value [8] did it give?
**A.** ~8 nM

**Q.** What about the “shift in EC50 upon addition” value [9] of the same binder?
**A.** ~54 fold

B4: Switchdrug DARPin 17-3 (designed binder)
chain: MRGSHHHHHHGSDLGKKLLQAARAGQLDEVRELLKAGADVNAKDSTGWTPLHLAAPWGHPEIVEVLLKAGADVNAKDFQGWTPLHLAAAAGHLEIVEVLLKAGADVNAKDWLGWTPLHLAASHGHLEIVEVLLKAGADVNAQDKSGKTPADLAARAGHQDIAEVLQKAAGSPTPTPTTPTPTPTTPTPTPTGSDLGKKLLEAARAGQDDEVRELLKAGADVNAKDKDGYTPLHLAAREGHLEIVEVLLKAGADVNAKDKDGYTPLHLAAREGHLEIVEVLLKAGADVNAQDKSGKTPADLAADAGHEDIAEVLQKAAGSPTPTPTTPTPTPTTPTPTPTGSDLGQKLLEAAWAGQDDEVRELLKAGADVNAKNSRGWTPLHTAAQTGHLEIFEVLLKAGADVNAKNDKRVTPLHLAAALGHLEIVEVLLKAGADVNARDSWGTTPADLAAKYGHQDIAEVLQKAA
notes: also called 2-in-1 DARPin17 in Format 3
**Q.** B4 was tested. Which “EC50 (read off the curve)” value [8] did it give?
**A.** ~3 nM

**Q.** And the “shift in EC50 upon addition” value [9]?
**A.** ~100 fold

B5: Switchdrug DARPin 17-A (designed binder)
chain: MRGSHHHHHHGSDLGKKLLQAARAGQLDEVRELLKAGADVNAKDQYGRTPLHLAAIKGHLEIVEVLLKAGADVNAKDSLGYTPLHLAAVEGPLEIVEVLLKAGADVNAKDAYGQTPLHIAAAWGHLEIVEVLLKAVADVNAQDKSGKTPADLAARAGHQDIAEVLQKAAGSPTPTPTTPTPTPTTPTPTPTGSDLGQKLLEAAWAGQDDEVRELLKAGADVNAKNSRGWTPLHTAAQTGHLEIFEVLLKAGADVNAKNDKRVTPLHLAAALGHLEIVEVLLKAGADVNARDSWGTTPADLAAKYGHQDIAEVLQKAAGSPTPTPTTPTPTPTTPTPTPTGSDLGKKLLQAARAGQLDEVRELLKAGADVNAKDSTGWTPLHLAAPWGHPEIVEVLLKAGADVNAKDFQGWTPLHLAAAAGHLEIVEVLLKAGADVNAKDWLGWTPLHLAASHGHLEIVEVLLKAGADVNAQDKSGKTPADLAARAGHQDIAEVLQKAA
notes: also called 2-in-1 DARPin17 in Format A
**Q.** Which “shift in EC50 upon addition” value [10] does the source give for B5 here?
**A.** ~90 fold

**Q.** And the “EC50 (read off the curve)” value [7]?
**A.** ~40 nM

B6: Switchdrug DARPin 18-A (designed binder)
chain: MRGSHHHHHHGSDLGKKLLQAARAGQLDEVRELLKAGADVNAKDQYGRTPLHLAAIKGHLEIVEVLLKAGADVNAKDSLGYTPLHLAAVEGPLEIVEVLLKAGADVNAKDAYGQTPLHIAAAWGHLEIVEVLLKAVADVNAQDKSGKTPADLAARAGHQDIAEVLQKAAGSPTPTPTTPTPTPTTPTPTPTGSDLGQKLLEAAWAGQDDEVRELLKAGADVNAKNSRGWTPLHTAAQTGHLEIFEVLLKAGADVNAKNDKRVTPLHLAAALGHLEIVEVLLKAGADVNARDSWGTTPADLAAKYGHQDIAEVLQKAAGSPTPTPTTPTPTPTTPTPTPTGSDLDKKLLEAARAGQDDEVRILLKAGADVNAKDSTGWTPLHLAAPWGHPEIVEVLLKAGADVNAKDFQGWTPLHLAAAAGHLEIVEVLLKAGADVNAKDVYGWTPLHIAAASGHLEIVEVLLKAGADVNAKDWLGWTPLHLAASHGHLEIVEVLLKAGADVNAQDKSGKTPADLAARAGHQDIAEVLQKAA
notes: also called 2-in-1 DARPin18 in Format A
**Q.** Which results are given for B6?
**A.** EC50 (read off the curve) [11]: ~200 nM; EC50 (read off the curve) [12]: ~90 nM; shift in EC50 upon addition of 100 nM VEGF [10]: ~2 fold; EC50 (read off the curve) [7]: ~90 nM

B7: 2-in-1 DARPin 21 (SEQ ID NO: 90) (designed binder)
chain: DLGKKLLEAARAGQDDEVRILMANGADVNANDWFGITPLHLVVNNGHLEIIEVLLKYAADVNASDKSGWTPLHLAAYRGHLEIVEVLLKYGADVNAMDYQGYTPLHLAAEDGHLEIVEVLLKYGADVNAKDKFGKTPLHIAARAGHLEIVEVLLKAGADVNAADNTGTTPLHLAAYSGHLEIVEVLLKHGADVDASDVFGYTPLHLAAYWGHLEIVEVLLKNGADVNAMDSDGMTPLHLAAKWGYLEIVEVLLKHGADVNAQDKFGKTAFDISIDNGNEDLAEILQKAA
**Q.** With B7 as the binder, how does the Kd [13] read?
**A.** 66.9 nM

**Q.** What about the “EC50 (read off the curve)” value [14] of the same binder?
**A.** ~100 nM

**Q.** What about the “EC50 (read off the curve)” value [15] of the same binder?
**A.** ~20 nM
